This note sets out measurements from the DeepSol protein solubility set.

This series in a line: soluble on expression in E. coli; label from the status in PepcDB or PDB records.
As to “MGSDKIHHHHHHMETAAELKTRLIAQAKAEGFVSVRLCRPWDVPEVPERLRAFLEAGYHGQMKWMAERINWRENPAALWPEARSVIMLAESYTPDEDPMAVVGLPDRAAISVYARGKDYHDLVKKRLKRLARWLIEEAPDEAQVKVFVDTAPVPEKALGQASGLGWQGKHTNLVSRDWGNWAFLGSIFTTLDLPVDAPEPDRCGSCRACLTACPTDAFPAPYQLDARRCISYLTIEHKGPIEEELRTKLGNRIYGCDDCLAACPWNKFAVEASDMRYAAREGTIAPPLAELSQLDDAAFRARFSGSPIKRIGRDRFVRNVLYAIGNSGDAGLHVFAQALCDDPDPTVAEAARWAAARLP”, the “soluble on expression in E. coli” value is given as “not soluble”.
With “MISGPFLHFDPTVPLQTVMIGHPATSPLSLPSSSSSPTVADPSNIHCRVCERRYDGSQHFGIDICRACAAFFRRSVAVKKTFVCRRGTNKCELNTVSRKTTCQKCRWMRCLLVGLNVDAVVGRRSPDHVKTTSRDESVKKEDEESDTGSEGKSCEDMDVSHPIEQFQQQISFSVHRPIPTIGNPNIYTTRASLINKVLINYNEFTKSRLDVELSLKHMQQDSKVFGSTGIPIVPATREIISEIYQKQFGLLHIFLKNTFDEYAECDVQEQKRICAMFYPVLWEIESCYWTYRNMPVQPEYETLMMCTQTTYIDSKNVRYWLGNTTGLNESDIQAVEARLENLLTKARNLVLEPMHKLIIKEFEFITLLALNIWAPRNHRGCVSEDRAEQVRDALFDDLHYLYCDGLKIDKYSSRMGEMMCLHTEVQNADMSSTIKNILFSDLNAYLYSI”, the “soluble on expression in E. coli” value is given as “not soluble”.
Take “SGSRDHLFKVLVVGDAAVGKTSLVQRYSQDSFSKHYKSTVGVDFALKVLQWSDYEIVRLQLWDIAGQERFTSMTRLYYRDASACVIMFDVTNATTFSNSQRWKQDLDSKLTLPNGEPVPCLLLANKCDLSPWAVSRDQIDRFSKENGFTGWTETSVKENKNINEAMRVLIEKMMRNSTEDIMSLSTQGDYINLQTKSSSWSCC”: the “soluble on expression in E. coli” value was “soluble”.
On to “MHAQFHHVSLLARHGQENQSFYTKLLGLRFVKNTVNQDNNRMPHYFYGDYQGTPGSLVTFFIVPLLGNRYEEKNYLATIGLKIPQNSLSFWEQRLTENKIPFNKKEKSLHFSDPDDTHIILTEVPENPLKETLVVSNDIPAAVQIIGLASTEFHVPDSEKTLAFFETFLGWQAVGNTIILSETESFSVHQTTSDKTSRMGRGSMDHIAFSVADDEALQELHTRALAQGWEIEMYVSRGYFKSLYIREPGGNRVEFATLTPGFTLDEPLEHLGETLALPPFLEPKRTAIEANLYKDM”, for which the “soluble on expression in E. coli” value is “not soluble”.
“MTKEKLSWLQQKMLNKSIKKKCQNFRELGYSSINEEDLLTYLLTYRWKKQTHLSVKDCRKDIHKVKPNEFFDYQQLLAQTSKNPLRDWHDIEDLF”: the “soluble on expression in E. coli” value is on record as “not soluble”.
For “MLRIEDLQLAAALAQAPSLSAAARALNVTPPALSMRLRKLEAGLGLALAVRSARRLSLTPEGERLAREAAALLAQLQALPESLRRDDSRLTGTLRVAAPFGYGRRHIAPVLARLAQRHPELRVQLDLRETPWPDHQDADAVVHIGAVRDSSWVTRRLADNERWLCASPQYLQDHGMPREPRDLLHHRCICIRENDEDASLWRFRRADAGAAGRKAAETVRIAPAYVSNDGNVARAWAEQGLGLVVRSQWDAEGAVARGALVRVMPQWQLDSAPVMLLVPGRKGRSARVKALLECFDEQAGHA”, the “soluble on expression in E. coli” value is listed as “not soluble”.
Regarding “MGSDKIHHHHHHMLIEKELSELTVGHYVVKIIQQEGCFSLTAAGHIKSKAVINHLKSKNVHRVLIDDSKTLLSSSHEKSATVDAPSIVKNKELKHAKAIFDQSKSIQKKLFHDALSGSCLDLSPVVEVTNKSIDAIFNSPDSLACMLNIREKDEYLLEHSVAVSVYITIFSRYLDLERHIIEQLSIGAFLHDIGKIKIPDKILNKPGKLTVDEFTIMKTHANHSIAIIKETPGISALSLEVAALHHEKLDGSGYPFQVDGEDISQYGRMIAICDIFDALTATRVYKEGFTHGKAFSILRELAKQGQLDASLVDHFIKCVGVFPVGSLVQLKSNKLALVQERNDKDPINPQVHSFYSVKLNQFLNKQEIDLSGSEDSIVKSVRAEEFDLDMKQIVDMLLMEG”, the “soluble on expression in E. coli” value is “not soluble”.
Then “MVEKPVVIKFGGTSVRYAFEEALELVAKLHENMKIIVVVSALAGVTDCLLRLAKGDKSALLEIDEIHEELSQELNVQLEHLIHQLKKTINSKSSFPSEKAFIDEIASFGERFSAKLFSEGLKILGITARPVDSKDVLFVKGEFGNAEVEFKKSAQGVDVLYRMLRRGIVPVVTGYYGNLNGFRATFGRGGSDYSATSIASLVNAKAVLIMSDVEGIYTADPKLVPPARLIHYISYKEAKTAAKLGMKVLHPRAIDPVEGKIPVILGKTRDLKFGTLISHESQGIPIVTHKLLENHAEISVVSVKTNIPLPYEVYEEGDLYFKIKTSKDQFLEVLRDVHRRVVENENLHSSHDGELWTWVLEHHHHHH”, with “not soluble”; and “MAHHHHHHMGLTDLFRRETPQERIRMYKRQLDRTCRDLDRERNKLSTQERKIMMEMKKMAKQDQVDAVRIMARDLVRTRKYNQKMYRMRTQIQGVSLRMQTMQSSAQMADAMKGVTKAMRSMNKKMNIPEIQKIMREFEKQNEMMGMKEDMMNDAVDEVMDDDGMEEEETEQEIQKVMDEAGLEFRTKVGVTDTALPQKSTETQGETDEELDARLAALKASMK”, with “soluble”.
Take “MSLKNEKQDITLWIAPNNVQEAFWSEVVGEWNKQPDKKKVVFSTIPAAGSSEEAIMNAIASDRAPDISENIFTGFGSQLADLGQVVDLSTLDGYENLISTRQMTDIMDNWRYNGKNYILPIYMNPVLFWWRGDLLKEQGFSEVPKTYDEVYALSEKYTIPDKRYAIQATSGRNWWDRWFDFIALYYAQSDGKPYIANQQASYDNQAGRDVLDFMHTLFSKKWTLYDFGQDDPLVTGKVLGAVRGPWDISRYQQQYPEILKHIKMGPMLVKEQQDKPHTFADGKGLVLFSHSKVKPEAWEFIQWVFSQPKFDKRWMELTGMPPARADLLTNPFFAEYYQEHPYAAAYAEYVNVAIPPVSSGETVEIQRSMTQMIEKTAFNTSTPDEALQQSIKEVNAILKEGHHHHHH”: the “soluble on expression in E. coli” value is recorded as “soluble”.
In the case of “MGSDKIHHHHHHMNKDFTFTIKSSCFDENYNPSENTRITTNFANLARGKSRQENLRNTLVMMDNRFNTLAYWDNPKANRYSVELEIISVEIDIEGNGDTFPAIEILKTNIVDKKTNERIEGIVGNNFSSYVRDYDFSVLLPEHNKSHPGFSTPDNFGDLHGKLFKCFTNSKFYKDNFNKQPVICLSVSSKNTYHRTGNQHPVLGIEYQQNEPSLTDHYFERMGLQARYFMPANSVAPLAFYFSGDLLNDYTNLELISTISTMETFQKIYRPEIYNANSAAGQYYQPNLNNQDHSLTKIVYDRVERSQLAIEQGKFTEEHFIKPYKNILEQWSAHYAR”, the “soluble on expression in E. coli” value was “not soluble”.
Then “MGSDKIHHHHHHMIPIKVSMRNLSSLTIAGGSTISSIDIPLNPLGVPPSTIKGTMRTAVHNLLPNGYTSCGEVEPESIREAHKNGVCDVCKLFGYPDSLTGCFTIDVSKTDYRTSYITRVSIDDKTQRAKEGSLFTQQIILPNSDISFTVYYNCNDERLFKLLLYSILDLRYWRLGRNTMIDVKVNNVEEICKSVKCDEEINGILNQLSRYLWEAENK”, with “not soluble”; and “SLVTRVTLAPGVRVMVAPYPPFLLPLQGRLNCLYMRLRSPVVVPPGDSFSIELKVPFDIAVIASSKGRHTLIDFFPPGGVVPKMAVYGSNVEGLLCRFWRDEWRGPAASARLTIVNNADVQATVSRVVLPRRGLSMFYNPVTGGIAASPIRMSVRDIDSADVWLEEAEPGEGFIEVPLVERDRRLFEALGPLVPGRIAMIWGI”, with “not soluble”.
For the sequence “MGSYIQMSGIGSRLRQERERLGLSQKVFGEIGGVEANAQGKYESGDRAPKADYLSRVAAKGVDVLYVLTGSRIPIQSGGLSQTEEKVLDCYRALFKEDQDAICRLTSTLAELSASQGERRKAQVRE”, the “soluble on expression in E. coli” value is listed as “soluble”.
Then “MIKLVFRYSPTKTVDGFNELAFGLGDGLPWGRVKKDLQNFKARTEGTIMIMGAKTFQSLPTLLPGRSHIVVCDLARDYPVTKDGDLAHFYITWEQYITYISGGEIQVSSPNAPFETMLDQNSKVSVIGGPALLYAALPYADEVVVSRIVKRHRVNSTVQLDASFLDDISKREMVETHWYKIDEVTTLTESVYK”, with “soluble”.
